Data as given in patent publication US20210284734A1 (SYMPHOGEN A S, published 2021).
Like-named read-outs stand apart in the source and are kept apart here.

What was measured:
[1] = target: T1, His-tagged human PD-1 ECD (human, UniProt Q15116 25-170); experiment: SPR, IgG captured, monovalent PD-1 ECD analyte
T1 construct: bought from Acro Biosystems; not shown: His tag

[2] = target: T2, His-tagged mouse PD-1 ECD (mouse (Mus musculus), UniProt Q02242 25-169); experiment: SPR, IgG captured, monovalent PD-1 ECD analyte
T2 construct: bought from Sino Biologicals; not shown: His tag
T2 sequence: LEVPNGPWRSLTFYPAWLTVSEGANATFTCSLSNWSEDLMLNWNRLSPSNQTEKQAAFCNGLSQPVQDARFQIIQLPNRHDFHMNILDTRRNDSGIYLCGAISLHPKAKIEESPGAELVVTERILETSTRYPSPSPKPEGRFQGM

[3] = target: T3, His-tagged cynomolgus PD-1 ECD (cynomolgus (Macaca fascicularis), UniProt Q15116 25-170 (human entry)); experiment: SPR, IgG captured, monovalent PD-1 ECD analyte
T3 construct: bought from Acro Biosystems; not shown: His tag
T3 chain: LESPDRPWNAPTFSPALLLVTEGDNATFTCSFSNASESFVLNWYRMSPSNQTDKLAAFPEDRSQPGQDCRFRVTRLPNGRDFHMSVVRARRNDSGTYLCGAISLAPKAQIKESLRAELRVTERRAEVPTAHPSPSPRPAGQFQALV

[4] = target: T1, His-tagged human PD-1 ECD; experiment: SPR, IgG captured, monovalent PD-1 ECD analyte; remark: listed apart in the source
Procedure: Kinetic binding analysis of the purified anti-PD-1 antibody repertoire was performed on an XPR-36 surface plasmon resonance (SPR) biosensor (Bio-Rad, USA).
(§1) The lowest possible anti-PD-1 antibody density was applied to prevent non-specific binding and mass transport limitation. For measuring antibody kinetics, anti-PD-1 antibodies were adjusted to a concentration of 1.0 μg/ml and captured on anti-human IgG Fc surfaces generated by immobilizing approximately 1000 RU of a monoclonal anti-human Fc antibody (Biacore, Denmark). […] The recorded binding responses were fitted to a simple Langmuir 1:1 binding model for calculation of the on-rate (kₒₙ or ka), off-rate (koff or kd) and affinity (KD) constants using double referencing.

[5] = target: T4, R-PE labeled human PD-L1-Fc chimera protein (human, UniProt Q9NZQ7 19-239, conjugated to R-phycoerythrin (R-PE)); experiment: flow cytometry, PD-1-transfected CHO-S cells; R-PE PD-L1-Fc 16.4 nM in the presence of the negative control ramucirumab 10 ug/ml
T4 construct: bought from R&D Systems; not shown: Fc of the commercial chimera
T4 sequence (Q9NZQ7 19-239, change not shown): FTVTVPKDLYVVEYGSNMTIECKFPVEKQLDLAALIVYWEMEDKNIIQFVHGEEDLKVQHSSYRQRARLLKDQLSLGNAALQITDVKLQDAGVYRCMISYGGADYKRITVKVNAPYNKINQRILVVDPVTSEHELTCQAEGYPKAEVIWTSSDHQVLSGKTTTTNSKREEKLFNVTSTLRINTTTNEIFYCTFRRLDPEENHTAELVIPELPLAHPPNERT

[6] = target: T2, His-tagged mouse PD-1 ECD; experiment: SPR, IgG captured, monovalent PD-1 ECD analyte; remark: listed apart in the source
Procedure: as §1
His-tagged mouse and rat PD-1 ECD were purchased from Sino Biologicals.

T1 sequence (Q15116 25-170): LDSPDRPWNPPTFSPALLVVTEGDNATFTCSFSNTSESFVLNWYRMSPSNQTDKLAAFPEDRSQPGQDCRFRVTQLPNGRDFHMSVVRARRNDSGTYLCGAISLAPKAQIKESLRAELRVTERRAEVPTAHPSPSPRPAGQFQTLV

B1: 12819.15384 (antibody, human IgG1, lambda, L234A L235A)
heavy: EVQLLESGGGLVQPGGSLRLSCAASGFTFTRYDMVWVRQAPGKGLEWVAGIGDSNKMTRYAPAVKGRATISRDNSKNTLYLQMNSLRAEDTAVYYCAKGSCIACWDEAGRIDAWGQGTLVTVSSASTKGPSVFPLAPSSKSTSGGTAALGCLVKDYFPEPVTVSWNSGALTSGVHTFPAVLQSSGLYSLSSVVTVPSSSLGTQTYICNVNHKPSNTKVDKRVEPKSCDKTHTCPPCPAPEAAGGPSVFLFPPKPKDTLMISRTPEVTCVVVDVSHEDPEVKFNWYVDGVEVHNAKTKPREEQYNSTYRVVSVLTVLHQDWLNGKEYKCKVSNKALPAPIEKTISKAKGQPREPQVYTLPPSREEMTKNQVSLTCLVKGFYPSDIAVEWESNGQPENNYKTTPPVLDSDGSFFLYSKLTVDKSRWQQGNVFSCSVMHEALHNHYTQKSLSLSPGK
light: SYELTQDPAVSVALGQTVRITCSGGGSYDGSSYYGWYQQKPGQAPVTVIYNNNNRPSDIPDRFSGSSSGNTASLTITGAQAEDEADYYCGSYDRPETNSDYVGMFGSGTKVTVLGQPKANPTVTLFPPSSEELQANKATLVCLISDFYPGAVTVAWKADGSPVKAGVETTKPSKQSNNKYAASSYLSLTPEQWKSHRSYSCQVTHEGSTVEKTVAPTECS
notes: humanized, IgG1 LALA, lambda
- Kd [1]: 0.028 nM
- koff [1]: 8.85e-06 s⁻¹
- kon [1]: 326000 M⁻¹ s⁻¹
- Kd [2]: 0.809 nM
- koff [2]: 3.04e-05 s⁻¹
- kon [2]: 37100 M⁻¹ s⁻¹
- Kd [3]: 0.005 nM
- koff [3]: 4.5e-06 s⁻¹
- kon [3]: 970000 M⁻¹ s⁻¹
- Kd [4]: 0.02 nM
- koff [4]: 2.3e-05 s⁻¹
- kon [4]: 1.1e+06 M⁻¹ s⁻¹

B2: cyno PD1 (receptor)
receptor: LESPDRPWNAPTFSPALLLVTEGDNATFTCSFSNASESFVLNWYRMSPSNQTDKLAAFPEDRSQPGQDCRFRVTRLPNGRDFHMSVVRARRNDSGTYLCGAISLAPKAQIKESLRAELRVTERRAEVPTAHPSPSPRPAGQFQALVVGVVGGLLGSLVLLVWVLAVICSRAAQGTIEARRTGQPLKEDPSAVPVFSVDYGELDFQWREKTPEPPAPCVPEQTEYATIVFPSGLGTSSPARRGSADGPRSPRPLRPEDGHCSWPL
notes: also called cynomolgus PD-1 expressed on CFSE-stained CHO-S cells
- binding result [5]: binds

B3: 12865.17150 (antibody, human IgG1, lambda, L234A L235A, V domains shown)
VH: EVQLLESGGGLVQPGGSLRLSCAASGFDFSDHGMQWVRQAPGKGLEYVGVIDTTGRYTYYAPAVKGRATISRDNSKNTLYLQMNSLRAEDTAVYYCAKTTCVGGYLCNTVGSIDAWGQGTLVTVSS
VL: SYELTQDPAVSVALGQTVRITCSGGGSSSYYGWYQQKPGQAPVTVIYDDTNRPSGIPDRFSGSSSGNTASLTITGAQAEDEADYYCGGYEGSSHAGIFGSGTKVTVLG
- binding result [6]: no binding
